Measurements reported in US20140303084A1 (Biogen, published 2014).
Bridge positions count the residues as written; N and C are the ends. Square brackets hold non-standard residues; d marks the D form. Primed or numbered codes have the meaning given here. Ends that are not written are not given here. NMeW = CN[C@@H](Cc1c[nH]c2ccccc12)C(=O)O; NMeY = CN[C@@H](Cc1ccc(O)cc1)C(=O)O; NMeR = CN[C@@H](CCCNC(=N)N)C(=O)O; NMeF = CN[C@@H](Cc1ccccc1)C(=O)O; NMeT = CN[C@H](C(=O)O)[C@@H](C)O; NMeL = CN[C@@H](CC(C)C)C(=O)O; NMeS = CN[C@@H](CO)C(=O)O; NMeA = CN[C@@H](C)C(=O)O; PEG4′ = PEG4 spacer; Sar = CNCC(=O)O

Molecular target: human Factor IXa (human, UniProt P00740 47-191; P00740 227-461)
Test: cell-based or functional assay

Row | EC50 [µM], FXa generation assay | EC50 [µM], FXa generation assay with hFIXa | Binder
1 | > 1 µM | – | RRAPGKL[dT]CLASYCWLFWTGIA (not fully specified (C-terminus, bridges); printed as RRAPGKLtCLASYCWLFWTGIA; cysteine pairing not given here) [RRAPGKLtCLASYCWLFWTGIA]
2 | > 1 µM | – | CGGSGGRRAPGKLQCLASYCWLFWTGIAGGSGGC
3 | – | < 0.5 µM | SKQGRPISPD[dR]RAAGKLTCLASYCWLFWTGIA-NH2 (cysteine pairing not given here) [compound 24]
4 | > 4 µM | – | RRAPGKLTCLASYCWLFWTG[MeIle]A (not fully specified (C-terminus, bridges); printed as RRAPGKLTCLASYCWLFWTG-MeIle-A; cysteine pairing not given here) [RRAPGKLTCLASYCWLFWTG-MeIle-A]
5 | > 1 µM | – | [NMeR]RAPGKLTCLASYCWLFWTGIA (cysteine pairing not given here) [MeArg-RAPGKLTCLASYCWLFWTGIA]
6 | < 0.5 µM | – | RRAPGKLTCLAS[dY]CWLFWTGIA (not fully specified (bridges); printed as RRAPGKLTCLASyCWLFWTGIA; cysteine pairing not given here) [RRAPGKLTCLASyCWLFWTGIA]
7 | < 0.5 µM | – | RRAPGKLTCLASYCWLFW[dT]GIA (not fully specified (C-terminus, bridges); printed as RRAPGKLTCLASYCWLFWtGIA; cysteine pairing not given here) [RRAPGKLTCLASYCWLFWtGIA]
8 | > 1 µM | – | RRAPGKLTCLASY[dC]WLFWTGIA (not fully specified (C-terminus, bridges); printed as RRAPGKLTCLASYcWLFWTGIA; cysteine pairing not given here) [RRAPGKLTCLASYcWLFWTGIA]
9 | > 10 µM | – | RRAPGKLTCLASYC[NMeW]LFWTGIA (cysteine pairing not given here) [RRAPGKLTCLASYC-MeTrp-LFWTGIA]
10 | < 0.5 µM | – | RRAPGKLTCLASYCWL[dF]WTGIA (not fully specified (C-terminus, bridges); printed as RRAPGKLTCLASYCWLfWTGIA; cysteine pairing not given here) [RRAPGKLTCLASYCWLfWTGIA]
11 | – | < 0.5 µM | PRIRTVGPGSRSASGKLTCLASYCWLFWTGIA-NH2 (cysteine pairing not given here) [compound 21]
12 | > 1 µM | – | CRRAPGKLQCLASYCWLFWTGIAGGSGGC
13 | > 1 µM | – | RRAPGKLTCLASYCW[dL]FWTGIA (not fully specified (bridges); printed as RRAPGKLTCLASYCWlFWTGIA; cysteine pairing not given here) [RRAPGKLTCLASYCWlFWTGIA]
14 | > 1 µM | – | RRAPGK[NMeL]TCLASYCWLFWTGIA (not fully specified (bridges); printed as RRAPGK-MeLeu-TCLASYCWLFWTGIA; cysteine pairing not given here) [RRAPGK-MeLeu-TCLASYCWLFWTGIA]
15 | < 0.5 µM | – | RRAPG[dK]LTCLASYCWLFWTGIA (disulfide 9-14 (inferred)) [RRAPGkLTCLASYCWLFWTGIA]
16 | < 0.5 µM | – | RR[NMeA]PGKLTCLASYCWLFWTGIA (disulfide 9-14 (inferred); not fully specified (C-terminus); printed as RR-MeAla-PGKLTCLASYCWLFWTGIA) [RR-MeAla-PGKLTCLASYCWLFWTGIA]
17 | < 0.5 µM | – | R[NMeR]APGKLTCLASYCWLFWTGIA (disulfide 9-14 (inferred); not fully specified (C-terminus); printed as R-MeArg-APGKLTCLASYCWLFWTGIA) [R-MeArg-APGKLTCLASYCWLFWTGIA]
18 | > 1 µM | – | RRAPGKLTCLASYCWLFWTGI[NMeA] (not fully specified (C-terminus, bridges); printed as RRAPGKLTCLASYCWLFWTGI-MeAla; cysteine pairing not given here) [RRAPGKLTCLASYCWLFWTGI-MeAla]
19 | < 0.5 µM | – | [PEG4′]RRAPGKLTCLASYCWLFWTGIA (disulfide 10-15 (inferred); not fully specified (C-terminus); printed as PEG4-RRAPGKLTCLASYCWLFWTGIA) [PEG4-RRAPGKLTCLASYCWLFWTGIA]

Row | EC50 [µM], FXa generation assay | EC50 [µM], FXa generation assay with hFIXa | Binder
20 | < 0.5 µM | – | RRAP[Sar]KLTCLASYCWLFWTGIA (not fully specified; printed as RRAP-Sar-KLTCLASYCWLFWTGIA; cysteine pairing not given here) [RRAP-Sar-KLTCLASYCWLFWTGIA]
21 | < 0.5 µM | – | RRAPGKLTCLA[dS]YCWLFWTGIA (not fully specified (bridges); printed as RRAPGKLTCLAsYCWLFWTGIA; cysteine pairing not given here) [RRAPGKLTCLAsYCWLFWTGIA]
22 | < 0.5 µM | – | RRAPGKLTCLASYCWLFWT[Sar]IA (not fully specified; printed as RRAPGKLTCLASYCWLFWT-Sar-IA; cysteine pairing not given here) [RRAPGKLTCLASYCWLFWT-Sar-IA]
23 | > 1 µM | – | RRAPGKLTCLAS[NMeY]CWLFWTGIA (not fully specified (bridges); printed as RRAPGKLTCLAS-MeTyr-CWLFWTGIA; cysteine pairing not given here) [RRAPGKLTCLAS-MeTyr-CWLFWTGIA]
24 | > 10 µM | – | RRAPGKLTCLASYCW[NMeL]FWTGIA (not fully specified (bridges); printed as RRAPGKLTCLASYCW-MeLeu-FWTGIA; cysteine pairing not given here) [RRAPGKLTCLASYCW-MeLeu-FWTGIA]
25 | > 1 µM | – | RRAPGKLTCL[dA]SYCWLFWTGIA (not fully specified (bridges); cysteine pairing not given here) [RRAPGKLTCLaSYCWLFWTGIA]
26 | > 1 µM | – | RRAPGKL[NMeT]CLASYCWLFWTGIA (cysteine pairing not given here) [RRAPGKL-MeThr-CLASYCWLFWTGIA]
27 | < 0.5 µM | – | RRA[dP]GKLTCLASYCWLFWTGIA (disulfide 9-14 (inferred)) [RRApGKLTCLASYCWLFWTGIA]
28 | > 1 µM | – | RRAPGKLTCLASYCWLFWTGI[dA] (not fully specified (C-terminus, bridges); printed as RRAPGKLTCLASYCWLFWTGIa; cysteine pairing not given here) [RRAPGKLTCLASYCWLFWTGIa]
29 | > 1 µM | – | CRRAPGKLQCLASYCWLFWTGIAC
30 | > 1 µM | – | RRAPGKLTCLASYCWL[NMeF]WTGIA (not fully specified (bridges); printed as RRAPGKLTCLASYCWL-MePhe-WTGIA; cysteine pairing not given here) [RRAPGKLTCLASYCWL-MePhe-WTGIA]
31 | > 1 µM | – | RRAPGKLTC[dL]ASYCWLFWTGIA (not fully specified (C-terminus, bridges); printed as RRAPGKLTClASYCWLFWTGIA; cysteine pairing not given here) [RRAPGKLTClASYCWLFWTGIA]
32 | – | < 0.5 µM | PRI[dR]TVGPGS[dR]SASGKLTCLASYCWLFWTGIA-NH2 (cysteine pairing not given here) [compound 23]
33 | < 0.5 µM | – | RRAPGKLTCLA[NMeS]YCWLFWTGIA (not fully specified (bridges); printed as RRAPGKLTCLA-MeSer-YCWLFWTGIA; cysteine pairing not given here) [RRAPGKLTCLA-MeSer-YCWLFWTGIA]
34 | – | < 0.5 µM | RRAPGKLTCLASYCWLFWTGIA-NH2 (cysteine pairing not given here) [compound 4]
35 | > 1 µM | – | CGGSGGRRAPGKLQCLASYCWLFWTGIAC
36 | > 1 µM | – | RR[dA]PGKLTCLASYCWLFWTGIA (not fully specified (bridges); printed as RRaPGKLTCLASYCWLFWTGIA; cysteine pairing not given here) [RRaPGKLTCLASYCWLFWTGIA]
37 | > 1 µM | – | RRAPGKLTC[NMeL]ASYCWLFWTGIA (not fully specified (bridges); printed as RRAPGKLTC-MeLeu-ASYCWLFWTGIA; cysteine pairing not given here) [RRAPGKLTC-MeLeu-ASYCWLFWTGIA]
